± gives the standard deviation.

This passage reports collision cross section results from the supplement of paper PMC10598134.

The nature of the data set: collision cross section of modified peptide (TIMS, N2, iRT-aligned); higher = larger / more extended gas-phase ion. In short, it runs like this: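 On a timsTOF Pro/HT (dda-PASEF, nitrogen, ~2.4 mbar), synthetic peptide pools were analysed after a 120-min nanoflow C18 separation at 60 °C and identified in MaxQuant. Three reference ions served for 1/K0 calibration, with run-wise alignment to the median iRT peptide deviation. Collision cross section comes from the Mason-Schamp equation, using the most abundant feature per charge state averaged over 1–3 technical replicates.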

Setting [1] is: charge state: 2, modification: Hydroxyproline.
Setting [2] is: charge state: 3, modification: Hydroxyproline.
Where [3] appears, read: charge state: 2, modification: Acetyl (K).
Setting [4] is: charge state: 3, modification: Acetyl (K).
Where [5] appears, read: charge state: 2, modification: Biotin.
Setting [6] is: charge state: 3, modification: Biotin.
Setting [7] is: charge state: 2, modification: Butyryl.
Setting [8] is: charge state: 3, modification: Butyryl.
Setting [9] is: charge state: 2, modification: Crotonyl.
[10] abbreviates: charge state: 3, modification: Crotonyl.
Where [11] appears, read: charge state: 2, modification: Dimethyl (K).
Where [12] appears, read: charge state: 3, modification: Dimethyl (K).
Setting [13] is: charge state: 2, modification: Formyl.
Where [14] appears, read: charge state: 2, modification: Glutarylation.
Setting [15] is: charge state: 3, modification: Glutarylation.
The mark [16] stands for this setting: charge state: 2, modification: GlyGly (K).
Where [17] appears, read: charge state: 3, modification: GlyGly (K).
[18] abbreviates: charge state: 2, modification: Malonyl.
[19] abbreviates: charge state: 2, modification: Methyl (K).
Where [20] appears, read: charge state: 3, modification: Methyl (K).
[21] abbreviates: charge state: 2, modification: Propionyl.
Where [22] appears, read: charge state: 2, modification: Succinyl.

With “GDIGETGVPGAEGPR [_GDIGETGVPGAEGP(Hydroxyproline)R_]”, under setting [1], the collision cross section is 384.38 ± 0.27 Å².
For the sequence “GDKGDAGEPGR [_GDKGDAGEP(Hydroxyproline)GR_]”, the collision cross section is, setting by setting: under setting [1], 331.51 ± 0.55 Å²; under setting [2], 414.61 ± 0.42 Å².
Sequence “GDNGSVGEPGPK [_GDNGSVGEP(Hydroxyproline)GPK_]” showed a collision cross section under setting [1] of 344.87 ± 1.1 Å².
Same read-out and setting: with GDPGLIGPK [_GDP(Hydroxyproline)GLIGPK_] the figure was 312.86 ± 1.3 Å²; with “GDQGEPGPSGNPGK [_GDQGEPGPSGNP(Hydroxyproline)GK_]”, 343.56 ± 0.79 Å².
For the sequence “GDRGEIGPPGPR [_GDRGEIGPP(Hydroxyproline)GPR_]”, the collision cross section by setting is: under setting [1], 368.56 ± 1.9 Å²; under setting [2], 424.63 ± 1.2 Å².
Under setting [1], “GDTGLPGPQGIPGGVGSPGR [_GDTGLPGPQGIP(Hydroxyproline)GGVGSPGR_]” had a collision cross section of 430.06 ± 1.1 Å².
The sequence “GDTGLPGPQGIPGGVGSPGR [_GDTGLPGPQGIPGGVGSP(Hydroxyproline)GR_]” yielded a collision cross section under setting [2] of 499.06 ± 39 Å².
The sequence GDYDLNAVR [_GDY(Nitro (Y))DLNAVR_] returned a collision cross section (charge state: 2, modification: Nitro (Y)) of 344.3 ± 0.72 Å².
Turning to GDYDLNAVR [_GDY(Phospho (Y))DLNAVR_], the collision cross section (charge state: 2, modification: Phospho (Y)) worked out at 348.87 ± 0.066 Å².
“GEAGPTGPQGEPGVR [_GEAGPTGPQGEP(Hydroxyproline)GVR_]” gave a collision cross section under setting [1] of 382.58 ± 0.36 Å².
With “GEAGPTGPQGEPGVRGIR [_GEAGPTGPQGEP(Hydroxyproline)GVRGIR_]”, under setting [2], the collision cross section is 499.21 ± 1.2 Å².
Take “GEGGFGGRGGGR [_GEGGFGGR(Citrullination (R))GGGR_]”: the collision cross section (charge state: 2, modification: Citrullination (R)) was 329.76 ± 0.38 Å².
Take “GEGGFGGRGGGR [_GEGGFGGR(Methyl (R))GGGR_]”: the collision cross section (charge state: 2, modification: Methyl (R)) turned out to be 345.55 ± 1 Å² and the collision cross section (charge state: 3, modification: Methyl (R)) is 413.1 Å².
For the sequence GEIGPPGPR [_GEIGPP(Hydroxyproline)GPR_], the collision cross section under setting [1] came out at 319.92 ± 1.1 Å².
As to “GEKGDPGLIGPK [_GEKGDP(Hydroxyproline)GLIGPK_]”, the collision cross section runs as follows: under setting [1], 375.69 ± 1.9 Å²; under setting [2], 437 ± 1.3 Å².
For the sequence “GEKGLPGLAGDHGEFGEK [_GEKGLP(Hydroxyproline)GLAGDHGEFGEK_]”, the collision cross section under setting [2] is 558.56 ± 0.81 Å².
On to “GEKGNPGVGTQGPR [_GEKGNP(Hydroxyproline)GVGTQGPR_]”, for which the collision cross section runs as follows: under setting [1], 371.11 ± 0.55 Å²; under setting [2], 431.33 ± 1.3 Å².
As for “GEPGIPAIPGIR [_GEPGIP(Hydroxyproline)AIPGIR_]”, under setting [1], the collision cross section came to 346.11 ± 0.79 Å².
For “GEPGIPAIPGIRGPK [_GEPGIP(Hydroxyproline)AIPGIRGPK_]”, the collision cross section under setting [1] came out at 382.81 ± 0.54 Å² and the collision cross section under setting [2] worked out at 511.46 ± 1.2 Å².
In turn, “GEPGLPGHPGK [_GEPGLP(Hydroxyproline)GHPGK_]” displayed a collision cross section under setting [1] of 337.36 ± 0.3 Å².
Sequence “GEPGQGLRGLQGPPGK [_GEPGQGLRGLQGPP(Hydroxyproline)GK_]” displayed a collision cross section under setting [1] of 408.26 ± 1.5 Å² and a collision cross section under setting [2] of 445.73 ± 1.3 Å².
“GEQGEPGAPGIR [_GEQGEP(Hydroxyproline)GAPGIR_]” displayed a collision cross section under setting [1] of 349.07 ± 0.25 Å².
Regarding “GEQGEPGAPGIRTGIQGLK [_GEQGEPGAP(Hydroxyproline)GIRTGIQGLK_]”, the collision cross section reads like this: under setting [1], 450.73 ± 0.4 Å²; under setting [2], 502.77 ± 1.3 Å².
As to “GERGFPGYPGPK [_GERGFP(Hydroxyproline)GYPGPK_]”, the collision cross section under setting [1] came to 370.65 ± 1.8 Å².
In turn, “GERGFPGYPGPK [_GERGFPGYP(Hydroxyproline)GPK_]” registered a collision cross section under setting [2] of 456.01 ± 1.2 Å².
“GERGPPGPPGK [_GERGPPGPP(Hydroxyproline)GK_]”: the collision cross section under setting [1] was determined as 326.03 ± 0.88 Å² and the collision cross section under setting [2] came out at 407.49 ± 18 Å².
Consider “GERGPPGPPGR [_GERGPP(Hydroxyproline)GPPGR_]”, for which the collision cross section under setting [1] amounted to 333.05 Å².
Turning to “GERGPPGPPGR [_GERGPPGP(Hydroxyproline)PGR_]”, the collision cross section under setting [2] came to 409.61 ± 0.34 Å².
Turning to GERGVPGER [_GERGVP(Hydroxyproline)GER_], the collision cross section turned out to be 328.27 ± 0.79 Å² under setting [1] and 402.04 Å² under setting [2].
Consider “GETASKLQSEISR [_GETASK(Acetyl (K))LQSEISR_]”, for which the collision cross section reads like this: under setting [3], 386.09 ± 2 Å²; under setting [4], 464.45 ± 0.086 Å².
Regarding GETASKLQSEISR [_GETASK(Biotin)LQSEISR_], the collision cross section worked out at 422.42 ± 2 Å² under setting [5] and 475.24 ± 0.34 Å² under setting [6].
Turning to “GETASKLQSEISR [_GETASK(Butyryl)LQSEISR_]”, the collision cross section by setting is: under setting [7], 390.84 ± 0.85 Å²; under setting [8], 467.14 ± 2.9 Å².
As for “GETASKLQSEISR [_GETASK(Crotonyl)LQSEISR_]”, the collision cross section is given as 388.79 ± 0.79 Å² under setting [9] and 466.94 ± 1.6 Å² under setting [10].
Regarding “GETASKLQSEISR [_GETASK(Dimethyl (K))LQSEISR_]”, the collision cross section reads like this: under setting [11], 398.3 ± 1.1 Å²; under setting [12], 460.41 ± 2.6 Å².
Regarding GETASKLQSEISR [_GETASK(Formyl)LQSEISR_], the collision cross section under setting [13] was determined as 382.6 ± 1.7 Å².
Turning to “GETASKLQSEISR [_GETASK(Gluratylation)LQSEISR_]”, the collision cross section came out at 403.5 ± 0.6 Å² under setting [14] and 470.57 Å² under setting [15].
Turning to “GETASKLQSEISR [_GETASK(GlyGly (K))LQSEISR_]”, the collision cross section is, setting by setting: under setting [16], 415.57 ± 0.85 Å²; under setting [17], 455.84 ± 1.3 Å².
“GETASKLQSEISR [_GETASK(Malonyl)LQSEISR_]” displayed a collision cross section under setting [18] of 395.19 ± 0.023 Å².
Consider “GETASKLQSEISR [_GETASK(Methyl (K))LQSEISR_]”, for which the collision cross section reads like this: under setting [19], 400.35 Å²; under setting [20], 463.3 ± 3.8 Å².
In turn, “GETASKLQSEISR [_GETASK(Propionyl)LQSEISR_]” showed a collision cross section under setting [21] of 387.23 ± 0.65 Å².
Under setting [22], “GETASKLQSEISR [_GETASK(Succinyl)LQSEISR_]” registered a collision cross section of 399.77 ± 2 Å².
“GETASKLQSEISR [_GETASK(Trimethyl (K))LQSEISR_]” displayed a collision cross section (charge state: 3, modification: Trimethyl (K)) of 463.43 ± 1.5 Å².
Regarding “GETASKLQSEISR [_GETASK(hydroxyisobutyryl)LQSEISR_]”, where the note is “charge state: 2, modification: hydroxyisobutyryl”, the collision cross section is recorded as 394.7 ± 0.81 Å².
In turn, “GEVGAGAGPGAQAGPSAKR [_GEVGAGAGPGAQAGPSAK(Acetyl (K))R_]” displayed a collision cross section under setting [3] of 420.33 ± 2.6 Å² and a collision cross section under setting [4] of 478.86 ± 2.4 Å².
In the case of “GEVGAGAGPGAQAGPSAKR [_GEVGAGAGPGAQAGPSAK(Biotin)R_]”, the collision cross section by setting is: under setting [5], 440.5 ± 1.2 Å²; under setting [6], 470.58 ± 2.6 Å².
Turning to “GEVGAGAGPGAQAGPSAKR [_GEVGAGAGPGAQAGPSAK(Butyryl)R_]”, the collision cross section under setting [7] was 426.32 ± 1.1 Å² and the collision cross section under setting [8] turned out to be 483.04 ± 4.4 Å².
Take “GEVGAGAGPGAQAGPSAKR [_GEVGAGAGPGAQAGPSAK(Crotonyl)R_]”: the collision cross section under setting [9] stood at 426.44 ± 0.55 Å² and the collision cross section under setting [10] was 497.45 ± 1.2 Å².
In the case of “GEVGAGAGPGAQAGPSAKR [_GEVGAGAGPGAQAGPSAK(Dimethyl (K))R_]”, the collision cross section runs as follows: under setting [11], 422.35 ± 0.53 Å²; under setting [12], 490.58 ± 1.6 Å².
As to “GEVGAGAGPGAQAGPSAKR [_GEVGAGAGPGAQAGPSAK(Formyl)R_]”, the collision cross section reads like this: under setting [13], 415.62 ± 0.18 Å²; (charge state: 3, modification: Formyl) 470.58 ± 2.9 Å².
Regarding “GEVGAGAGPGAQAGPSAKR [_GEVGAGAGPGAQAGPSAK(Gluratylation)R_]”, the collision cross section is listed as 425.64 ± 1.1 Å² under setting [14] and 490.81 ± 0.95 Å² under setting [15].
As to “GEVGAGAGPGAQAGPSAKR [_GEVGAGAGPGAQAGPSAK(GlyGly (K))R_]”, the collision cross section is reported as 426.91 ± 0.84 Å² under setting [16] and 469.61 ± 1.1 Å² under setting [17].
Take “GEVGAGAGPGAQAGPSAKR [_GEVGAGAGPGAQAGPSAK(Malonyl)R_]”: the collision cross section runs as follows: under setting [18], 415.94 ± 0.58 Å²; (charge state: 3, modification: Malonyl) 468.8 ± 1.8 Å².
With “GEVGAGAGPGAQAGPSAKR [_GEVGAGAGPGAQAGPSAK(Methyl (K))R_]”, the collision cross section came to 422.57 ± 1.8 Å² under setting [19] and 489.3 ± 3.6 Å² under setting [20].
With “GEVGAGAGPGAQAGPSAKR [_GEVGAGAGPGAQAGPSAK(Propionyl)R_]”, the collision cross section is, setting by setting: under setting [21], 422.82 ± 0.97 Å²; (charge state: 3, modification: Propionyl) 482.16 ± 0.88 Å².
Take “GEVGAGAGPGAQAGPSAKR [_GEVGAGAGPGAQAGPSAK(Succinyl)R_]”: the collision cross section runs as follows: under setting [22], 417.99 ± 0.36 Å²; (charge state: 3, modification: Succinyl) 474.67 ± 1.5 Å².
